Data on 1 molecule can be found in patent publication US6365350B1, “Method of DNA sequencing” (The Institute of Physical and Chemical Research, priority 1997, dated 2002).

Entries after “also recorded” stand apart in the source; their conditions may differ.

In series [1] the test system is dye terminators. Put plainly: Sequencing reaction utilizing mutant T7 RNA polymerase F644Y/L665P/F667Y (Example 8). It counts as biochemical. To be noted: PCR product template, n=4 dye terminators, FIG. 41.
The subject of series [2] is 3′-dATP, 3′-dGTP, 3′-dCTP, 3′-dUTP and derivatives thereof.
Experimental: The T7 RNA polymerases introduced with mutations were purified, and their abilities of promoter sequence specific RNA synthesis and incorporation of ribonucleoside 5′-triphosphates including ATP, GTP, CTP, UTP and derivatives thereof, as well as 3′-DATP, 3′-dGTP, 3′-dCTP, 3′-dUTP and derivatives thereof were compared with those of wild type T7 RNA polymerase.
For two kinds of reaction mixture (with or without 3′-DATP, final concentration was 100 μM), the reaction was performed at 37° C. for 60 minutes. The whole reaction mixture was spotted on DE81 paper (Whatman), washed three times with phosphate buffer, and dried. The DE81 paper was placed into a scintillation vial, and radioactivity was measured using a scintillation counter (Beckman) for each reaction. Degree of inhibition of the [α-^32P]UTP incorporation was calculated by comparing the values obtained with and without 3′-dATP based on the measured radioactivity.
Series [3] relates to DNA containing T7 promoter. The following applies: in vitro, compared with wild type T7 RNA polymerase. The protocol: Subsequent steps for purification of enzyme should be performed at a temperature lower than room temperature, preferably 0-5° C. unless otherwise indicated. The E. coli cells were washed with 10 times relative to the cell weight of a washing buffer (20 mM Tris-HCl, pH 8.1, 130 mM NaCl, 2 mM EDTANa2 at 25° C.), centrifuged again (5,000×g, 4° C., 10 minutes), suspended in 10 times in volume of a sonication buffer [50 mM Tris-HCl, pH 8.1, 100 mM NaCl, 0.1 mM EDTANa2, 5 mM dithiothreitol (DTT), 0.1 mM benzamidine, 30 μg/ml phenylmethylsulfonyl fluoride (PMSF), 10 μg/ml bacitracin], and sonicated by using Sonifier 450 (Branson) at 80W for more than 15 minutes to destroy the cells and reduce the viscosity of the cells. Then, the cell suspension is centrifuged at 12,000×g and 4° C. for ten minutes to remove the cell debris. 10% streptomycin sulfate was slowly added dropwise to the resulting supernatant to a final concentration of 2.0% with stirring, and stirring was further continued for 30 minutes. The supernatant was centrifuged at 12,000×g and 4° C. for ten minutes to remove precipitates, and slowly added with ammonium sulfate powder with stirring to form precipitates. In this case, precipitates were first collected by 30% saturation of ammonium sulfate (30% ammonium sulfate precipitation), and the resulting supernatant was further added with ammonium sulfate to 60% saturation with stirring to form precipitates again (30-60% ammonium sulfate precipitation). The supernatant was added again with ammonium sulfate powder to 90% ammonium sulfate saturation, and stirred at 4° C. for 1 hour, and the precipitates were collected by centrifugation. […] The.30′60% ammonium sulfate fraction was suspended in a small amount of column buffer (20 mM KPO4, pH 7.7, 100 mM NaCl, 1 mM DTT, 30 μg/ml PMSF), and desalted by dialysis against 500 ml of the same buffer for 16hours. The dialysate was applied on a heparin-Sepharose column of 5 ml volume (Pharmacia Biotech). Subsequently, the column was washed with the same buffer until any material absorbing ultraviolet ray at 280 nm disappeared, and eluted with a linear gradient of 0.1 M to 0.64 M NaCl in the same buffer of about 40 times volume of the column volume. The eluent was collected in test tubes as fractions of a suitable volume, and immediately subjected to SDS-acrylamide gel electrophoresis for protein analysis to identify fractions containing proteins around a molecular weight considered to be of the objective T7 RNA polymerase. […] The fractions containing the protein were collected, and desalted by dialysis against about 1 liter of the column buffer (20 mM KPO4, pH 7.7, 100 mM NaCl, 1 mM DTT, 30 μg/ml PMSF) for 16 hours. The fractions desalted by dialysis were applied to a Q-Sepharose column (Pharmacia Biotech) of 5 ml volume that preliminarily equilibrated with the same buffer, and the column was washed with the same buffer until any material absorbing ultraviolet ray at 280 nm disappeared, and eluted with a linear gradient of 0.1 M to 0.64 M NaCl in the same buffer of about 40 times volume of the column volume. The eluent was collected in test tubes as fractions of a suitable volume, and immediately subjected to SDS-acrylamide gel electrophoresis for protein analysis to identify fractions containing proteins around a molecular weight considered to be of the objective T7 RNA polymerase. […] The fractions containing the protein were collected, dialyzed against 500 ml of storage buffer (50% glycerol, 20 mM KPO4, pH 7.7, 100 mM NaCl, 1 mM DTT, 30 μg/ml PMSF) for 16 hours, and stored at −20° C. until use. In vitro RNA synthesis activity and activity of the contaminated ribonuclease of this sample were examined.

The test system of series [4] is 3′-dATP. As to the kind of experiment: Inhibition of [α-32P]UTP incorporation by 3′-dATP in transcription reaction (relative activity for 3′-dATP). It counts as biochemical.

B1: F644Y/L665P/F667Y: mutant T7 RNA polymerase introduced with F644Y/L665P/F667Y mutations (protein)
chain: MNTINIAKNDFSDIELAAIPFNTLADHYGERLAREQLALEHESYEMGEARFRKMFERQLKAGEVADNAAAKPLITTLLPKMIARINDWFEEVKAKRGKRPTAFQFLQEIKPEAVAYITIKTTLACLTSADNTTVQAVASAIGRAIEDEARFGRIRDLEAKHFKKNVEEQLNKRVGHVYKKAFMQVVEADMLSKGLLGGEAWSSWHKEDSIHVGVRCIEMLIESTGMVSLHRQNAGVVGQDSETIELAPEYAEAIATRAGALAGISPMFQPCVVPPKPWTGITGGGYWANGRRPLALVRTHSKKALMRYEDVYMPEVYKAINIAQNTAWKINKKVLAVANVITKWKHCPVEDIPAIEREELPMKPEDIDMNPEALTAWKRAAAAVYRKDKARKSRRISLEFMLEQANKFANHKAIWFPYNMDWRGRVYAVSMFNPQGNDMTKGLLTLAKGKPIGKEGYYWLKIHGANCAGVDKVPFPERIKFIEENHENIMACAKSPLENTWWAEQDSPFCFLAFCFEYAGVQHHGLSYNCSLPLAFDGSCSGIQHFSAMLRDEVGGRAVNLLPSETVQDIYGIVAKKVNEILQADAINGTDNEVVTVTDENTGEISEKVKLGTKALAGQWLAYGVTRSVTKRSVMTLAYGSKEYGFRQQVLEDTIQPAIDSGKGPMYTQPNQAAGYMAKLIWESVSVTVVAAVEAMNWLKSAAKLLAAEVKDKKTGEILRKRCAVHWVTPDGFPVWQEYKKPIQTRLNLMFLGQFRLQPTINTNKDSEIDAHKQESGIAPNFVHSQDGSHLRKTVVWAHEKYGIESFALIHDSFGTIPADAANLFKAVRETMVDTYESCDVLADFYDQFADQLHESQLDKMPALPAKGNLNLRDILESDFAFA
With B1, in series [1], the “incorporation rate of dye terminators (electrogram)” value is recorded as “improvement of incorporation rate of dye terminators”. The “bias of incorporation observed in the wild type” value in series [2] was “markedly reduced”. Besides, the “ability for incorporating 3′-dATP, 3′-dGTP, 3′-dCTP, 3′-dUTP and derivatives thereof” value in series [2] (compared with wild type T7 RNA polymerase) was “marked improvement; also recorded: the highest; also recorded: markedly improved ability”. Moreover, the RNA synthesis activity result in series [3] was “maintained sufficient RNA synthesis activity”. Moreover, the “bias for the 3′-dATP incorporation” value in series [4] (among the mutant enzymes prepared) was “the least bias”. Moreover, in series [4] (from Table 1), the “more likely to incorporate 3′-dATP in comparison with the wild type enzyme” value worked out at 5.58 times. The “Relative activity of RNA polymerase for 3′-dATP” value in series [4] (relative value of inhibition degree of [α-32P]UTP incorporation by 100 μM 3′-dATP, wild type normalized to 1.000, 37° C., 60 minutes) was 5.580.
